According to patent US20050202403A1:
“And” between values parts separate entries of the source, which are not always exact repeats. Equal entries are not always repeated.

target: yeast Gβγ (STE4/STE18) (Saccharomyces cerevisiae) (UniProt P18851); experiment: cell-based or functional assay
Sequence (P18851 whole entry, chain 1 of 2): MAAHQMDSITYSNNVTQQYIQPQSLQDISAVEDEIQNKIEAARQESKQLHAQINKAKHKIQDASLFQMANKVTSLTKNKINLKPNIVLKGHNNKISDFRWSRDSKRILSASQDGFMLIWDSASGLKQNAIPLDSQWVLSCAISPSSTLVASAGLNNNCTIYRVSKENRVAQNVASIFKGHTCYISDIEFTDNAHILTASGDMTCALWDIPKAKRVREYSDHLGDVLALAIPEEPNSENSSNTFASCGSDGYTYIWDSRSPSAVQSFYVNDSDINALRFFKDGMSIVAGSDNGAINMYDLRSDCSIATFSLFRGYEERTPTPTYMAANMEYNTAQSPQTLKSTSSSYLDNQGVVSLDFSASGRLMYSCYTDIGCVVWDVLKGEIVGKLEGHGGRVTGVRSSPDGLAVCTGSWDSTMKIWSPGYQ
Sequence (P18852 1-107, chain 2 of 2, further chain): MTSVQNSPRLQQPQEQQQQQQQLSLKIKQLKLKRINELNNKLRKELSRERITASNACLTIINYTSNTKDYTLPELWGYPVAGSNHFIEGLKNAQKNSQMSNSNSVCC

Sequence of GPA1-Gα12 chimera (Cp3435) (P08539 1-41, change not shown): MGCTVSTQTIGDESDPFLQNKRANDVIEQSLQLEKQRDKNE
Sequence of GPA1-Gα12 S288P chimera (Cp3822) (P08539 1-41, stated change not applied): as the sequence (P08539 1-41, change not shown) above
Sequence of Gpal(1-43)-Gαi2(36-242)-GαoB(243-354) S280P chimera (Cp3635) (P08539 1-43, stated change not applied): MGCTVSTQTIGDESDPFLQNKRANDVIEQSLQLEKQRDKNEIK
Sequence of rat Gαs, wild type (Cp3098) (P63095 2-394): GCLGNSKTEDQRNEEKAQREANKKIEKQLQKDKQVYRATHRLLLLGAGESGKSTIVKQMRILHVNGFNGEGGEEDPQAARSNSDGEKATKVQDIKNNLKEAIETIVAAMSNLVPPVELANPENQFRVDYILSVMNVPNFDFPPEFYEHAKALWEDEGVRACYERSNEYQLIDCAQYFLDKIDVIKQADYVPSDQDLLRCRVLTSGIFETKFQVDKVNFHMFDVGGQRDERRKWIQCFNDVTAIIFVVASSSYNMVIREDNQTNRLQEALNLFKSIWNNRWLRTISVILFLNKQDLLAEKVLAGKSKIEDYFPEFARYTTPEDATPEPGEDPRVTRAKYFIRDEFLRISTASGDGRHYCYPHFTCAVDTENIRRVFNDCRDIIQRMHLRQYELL
Sequence of GPA1(41)-Gαi2-Gαo(40) (P08539 1-41): as the sequence (P08539 1-41, change not shown) above
Sequence of GPA1(41)-Gαi1 (P08539 1-41): as the sequence (P08539 1-41, change not shown) above
Sequence of GPA1(20)-Gα16(S-P) (P08539 1-20): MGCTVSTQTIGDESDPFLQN

Substance	min[AT]i	growth of gpa1 fus1-HIS3 yeast on aminotriazole	growth of the gpal fusl-HIS3 strain on 3-AT	growth of a gpal fusl-HIS3 colony on media lacking histidine with 3-AT
GPA1(20)-Gα16 (from UniProt P08539 1-20)	1 mM	–	–	–
GPA1(20)-Gα16(S-P) (from UniProt P08539 1-20)	0.5 mM	–	–	–
GPA1(41)-Gαi1 (from UniProt P08539 1-41)	0.5 mM	–	–	–
GPA1(41)-Gαi2 (from UniProt P08539 1-41; P04899 36-355)	0.5 mM	–	–	–
GPA1(41)-Gαi2-Gαo(40) (from UniProt P08539 1-41)	1 mM	–	–	–
GPA1(41)-Gαi3 (from UniProt P08539 1-41; P08754 36-354)	0.5 mM	–	–	–
GPA1-Gα12 S288P chimera (Cp3822) (from UniProt P08539 1-41)	1 mM	0.5 mM	–	–
GPA1-Gα12 chimera (Cp3435) (from UniProt P08539 1-41)	–	2.5 mM and 1 mM	–	–
Gpal(1-43)-Gα16(45-374) S270P chimera (Cp3699) (from UniProt P08539 1-43; P30679 45-374)	1 mM	–	–	–
Gpal(1-43)-Gαi2(36-242)-GαoB(243-354) S280P chimera (Cp3635) (from UniProt P08539 1-43)	1 mM	–	–	–
Gαi1	1.5 mM	–	–	–
rat Gαs D229V (from UniProt P63095 2-394)	–	–	0.2 mM	–
rat Gαs E10K (from UniProt P63095 2-394)	–	–	0.2 mM	–
rat Gαs N254D (from UniProt P63095 2-394)	–	–	0.2 mM	–
rat Gαs S286P (from UniProt P63095 2-394)	–	–	0.2 mM	–
rat Gαs, wild type (Cp3098) (from UniProt P63095 2-394)	–	–	–	1 mM

target: human adenosine A2a receptor (human) (UniProt P29274); experiment: cell-based or functional assay
Sequence (P29274 whole entry): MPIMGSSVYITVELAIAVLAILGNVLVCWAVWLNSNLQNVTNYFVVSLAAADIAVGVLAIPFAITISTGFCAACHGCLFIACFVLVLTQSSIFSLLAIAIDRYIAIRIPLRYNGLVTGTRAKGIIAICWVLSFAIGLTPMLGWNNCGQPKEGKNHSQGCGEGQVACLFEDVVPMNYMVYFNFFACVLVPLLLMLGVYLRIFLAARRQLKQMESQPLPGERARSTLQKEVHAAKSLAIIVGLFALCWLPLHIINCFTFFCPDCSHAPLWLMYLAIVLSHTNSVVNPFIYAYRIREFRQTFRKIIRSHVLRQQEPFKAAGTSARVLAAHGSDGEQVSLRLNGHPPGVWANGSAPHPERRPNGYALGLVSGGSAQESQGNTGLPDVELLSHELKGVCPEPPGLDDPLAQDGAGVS

Substance	fusl-lacZ reporter, β-galactosidase units on addition of NECA
rat Gαs D229S (Cp3390) (from UniProt P63095 2-394)	10 fold
rat Gαs E10K (from UniProt P63095 2-394)	10 fold
rat Gαs E10K D229S double mutant (from UniProt P63095 2-394)	10 fold
rat Gαs N254D (from UniProt P63095 2-394)	10 fold
rat Gαs S286P (from UniProt P63095 2-394)	10 fold
